Source: patent publication US20130078188

Key:
[1] = tested on: Cy7-NH-e9-c(S-Peg12)oPLGC(Me)AG-r9-c(Cy5)-CONH2 (20, RACPPPLGC(Me)AG)
[2] = tested on: Cy7-NH-e9-c(S-Peg12) oPPRSFL-r9-c(Cy5)-CONH2 (10, RACPPPPRSFL)
[3] = tested on: Cy7-NH-e9-c(S-Peg12) oDPRSFL-r9-c(Cy5)-CONH2 (5, RACPPDPRSFL)
Cy7-NH-e9-c(S-Peg12) oDPRSFL-r9-c(Cy5)-CONH2 (5, RACPPDPRSFL), sequence (chain, as listed by the source): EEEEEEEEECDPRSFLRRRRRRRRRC

Cy7-NH-e9-c(S-Peg12) oPPRSFL-r9-c(Cy5)-CONH2 (10, RACPPPPRSFL), sequence (chain, as listed by the source): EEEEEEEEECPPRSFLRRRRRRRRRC
MMP-9, sequence (chain, as listed by the source): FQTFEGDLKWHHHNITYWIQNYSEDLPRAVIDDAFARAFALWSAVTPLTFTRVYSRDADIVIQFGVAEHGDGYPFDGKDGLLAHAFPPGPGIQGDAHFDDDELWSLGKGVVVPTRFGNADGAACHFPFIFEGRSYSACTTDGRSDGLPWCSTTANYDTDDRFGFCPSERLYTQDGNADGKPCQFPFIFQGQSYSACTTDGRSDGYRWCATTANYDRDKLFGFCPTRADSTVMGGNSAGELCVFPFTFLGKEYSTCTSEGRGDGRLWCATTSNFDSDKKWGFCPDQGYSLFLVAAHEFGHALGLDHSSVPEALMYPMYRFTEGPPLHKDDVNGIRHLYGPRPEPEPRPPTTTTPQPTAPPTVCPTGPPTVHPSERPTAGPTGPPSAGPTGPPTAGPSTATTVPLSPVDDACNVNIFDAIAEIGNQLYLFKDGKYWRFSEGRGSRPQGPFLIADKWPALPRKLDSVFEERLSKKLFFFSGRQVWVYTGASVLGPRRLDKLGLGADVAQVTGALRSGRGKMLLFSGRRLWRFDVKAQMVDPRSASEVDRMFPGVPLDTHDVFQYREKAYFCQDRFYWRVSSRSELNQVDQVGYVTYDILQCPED
RACPP1, sequence (chain, as listed by the source): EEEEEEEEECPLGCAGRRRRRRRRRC
RACPP2, sequence (chain, as listed by the source): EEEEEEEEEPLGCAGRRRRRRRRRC

Substance	fraction of peptide cleaved, HPLC (FRET-ACPP 2)	increase of the Cy5 peak, extrapolated to 100% cleavage (FRET-ACPP 2)	decrease in Cy7 re-emission on cleavage, in mouse plasma (RACPP1)	extent of cleavage (RACPP1)	increase in Cy5 emission on cleavage, in mouse plasma (RACPP1)	increase in the ratio of 670/780 nm emissions on cleavage (RACPP1)	peptide cleavage, tricine SDS-PAGE with Cy5 and Cy7 imaging (RACPP2)	peptide cleavage, SDS-PAGE with Cy5/Cy7 ratio imaging [1]	kcat/Km (cleavage activity) [2]	kcat/Km [3]	change in Cy5/Cy7 emission ratio on cleavage, in plasma [2]	decrease in Cy7 re-emission on cleavage, in plasma [2]	increase in Cy5 emission on cleavage, in plasma [2]	kcat/Km [2]	peptide cleavage, SDS-PAGE with Cy5/Cy7 ratio imaging [2]	peptide cleavage, SDS-PAGE with Cy5/Cy7 ratio imaging [3]
MMP-9	87% of the peptide had been cleaved	the Cy5 peak increases about 7 fold	decreased Cy7 re-emission by ˜4 fold	after (red dashed curve)>95% complete cleavage with MMP-9	increased Cy5 emission by ˜10 fold	net 40-fold increase in the ratio of 670/780 nm emissions	All three components (intact uncleaved peptide, r9 and e9 fragments) are well separated and can be seen as distinct bands in the gel	–	–	–	–	–	–	–	–	–
factor Xa	–	–	–	–	–	–	–	not cleaved by any of the pro-coagulation enzymes	no detectable activity towards RACPPPPRSFL	6200 M⁻¹ s⁻¹	–	–	–	–	–	–
thrombin	–	–	–	–	–	–	–	not cleaved by any of the pro-coagulation enzymes	–	kcat/km=1.2×10^4 M^-1s^-1	34 fold change in Cy5/Cy7 emission ratio	3.8 fold decrease in Cy7 re-emission	8.8 fold increase in Cy5 emission	7300 M⁻¹ s⁻¹	cleaved by thrombin in a time dependent manner and that RACPPPPRSFL(10) is selective for thrombin	cleaved by thrombin in a time dependent manner
